Experimental data: patent publication US20230303649A1 (published 2023)

Target: T1, IL-2R on human primary T cells (human, UniProt P01589 22-272; P14784 27-551; P31785 23-369)
T1 sequence (looked up) 1: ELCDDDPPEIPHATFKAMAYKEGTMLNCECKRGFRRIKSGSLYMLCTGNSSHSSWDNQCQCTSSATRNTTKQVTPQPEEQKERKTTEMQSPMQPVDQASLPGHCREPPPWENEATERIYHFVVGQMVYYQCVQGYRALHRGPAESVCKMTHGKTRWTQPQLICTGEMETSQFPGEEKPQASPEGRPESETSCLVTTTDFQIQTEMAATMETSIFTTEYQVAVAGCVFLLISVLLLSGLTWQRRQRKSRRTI
T1 sequence (looked up) 2: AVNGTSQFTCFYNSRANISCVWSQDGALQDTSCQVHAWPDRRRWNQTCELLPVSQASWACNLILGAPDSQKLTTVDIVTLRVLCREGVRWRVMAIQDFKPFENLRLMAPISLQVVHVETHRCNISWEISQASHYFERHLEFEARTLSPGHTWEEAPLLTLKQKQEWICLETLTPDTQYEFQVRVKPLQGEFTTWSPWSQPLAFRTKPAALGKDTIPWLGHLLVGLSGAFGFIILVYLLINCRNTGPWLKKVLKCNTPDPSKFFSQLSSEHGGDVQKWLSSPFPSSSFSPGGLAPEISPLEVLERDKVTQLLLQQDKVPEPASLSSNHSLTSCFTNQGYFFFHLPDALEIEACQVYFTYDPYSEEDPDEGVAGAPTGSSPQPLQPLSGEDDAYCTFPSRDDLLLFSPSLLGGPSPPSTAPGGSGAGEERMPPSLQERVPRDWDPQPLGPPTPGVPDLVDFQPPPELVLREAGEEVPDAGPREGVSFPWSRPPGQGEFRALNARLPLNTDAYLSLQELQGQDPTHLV
T1 sequence (looked up) 3: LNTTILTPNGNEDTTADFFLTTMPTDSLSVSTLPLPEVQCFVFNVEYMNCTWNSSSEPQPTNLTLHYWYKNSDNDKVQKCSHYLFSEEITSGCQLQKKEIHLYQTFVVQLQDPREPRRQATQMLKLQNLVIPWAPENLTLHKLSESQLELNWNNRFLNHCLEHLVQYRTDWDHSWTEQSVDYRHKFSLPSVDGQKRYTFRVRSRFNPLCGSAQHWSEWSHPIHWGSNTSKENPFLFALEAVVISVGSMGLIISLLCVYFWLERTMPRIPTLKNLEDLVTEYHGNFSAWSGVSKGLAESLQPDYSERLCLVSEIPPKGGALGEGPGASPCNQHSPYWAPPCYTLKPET
Test: cell-based or functional assay

| Binder | CD4 conv EC50 (nM), STAT5 phosphorylation [nM] | CD8 EC50 (nM), STAT5 phosphorylation [nM] | CD8 naïve EC50 (nM), STAT5 phosphorylation [nM] | Treg EC50 (nM), STAT5 phosphorylation [nM] |
| --- | --- | --- | --- | --- |
| SEQ ID NO 23 (ligand) APTSSSTKKTQLQLEHLLLDLQMILNGINNHKNPKLTRMLTFKFYMPKKATELKHLQCLEEELKPLEEVLRLAQSKNFHLRPRDLISDINVIVLELKGSETTFMCEYADETATIVEFLNRWITFSQSIISTLT | 1000 | 1820 | 1880 | 0.49 |
| SEQ ID NO 25 (ligand) APTSSSTKKTQLQLEHLLLDLQMILNGINNHKNPRLTRMLTFKFYMPKKATELKHLQCLEEELKPLEEALRLAPSKNFHLRPRDLISNINVIVLELKGSETTFMCEYADETATIVEFLNRWITFSTSIISTLT | 2290 | 10000 | 10000 | 0.43 |
| SEQ ID NO 29 (ligand) APTSSSTKKTQLQLEHLLLDLQMILNGINNHKNPRLTRMLTFKFYMPKKATELKHLQCLEEELKPLEEVLNLAPSKNFHLRPRDLISNINVIVLELKGSETTFMCEYADETATIVEFLNRWITFSTSIISTLT | 2290 | 10000 | 10000 | 9.32 |
| SEQ ID NO 30 (ligand) APTSSSTKKTQLQLEHLLLDLQMILNGINNHKNPKLTRMLTFKFYMPKKATELKHLQCLEEELKPLEEALNLAPSKNFHLRPRDLISDINVIVLELKGSETTFMCEYADETATIVEFLNRWITFSQSIISTLT | 7000 | 10000 | 10000 | 10.7 |
| SEQ ID NO 10 (ligand) APTSSSTKKTQLQLEHLLLDLQMILNGISNHKNPRLARMLTFKFYMPEKATELKHLQCLEEELKPLEEALRLAPSKNFHLRPRDLISDVNVIVLELKGSETTFMCEYADETATIVEFLNRWITFSTSIISTLT |  | 650 |  | 2.55 |
| SEQ ID NO 32 (ligand) APTSSSTKKTQLQLEHLLLDLQMILNGINNYKNPKLTRMLTFKFYMPKKATELKHLQCLEEELKPLEEALNLAQSKNFHLRPRDLISDINVIVLELKGSETTFMCEYADETATIVEFLNRWITFSQSIISTLT | 7000 | 10000 | 10000 | 94.9 |
| SEQ ID NO 28 (ligand) APTSSSTKKTQLQLEHLLLDLQMILNGINNHKNPRLTRMLTFKFYMPKKATELKHLQCLEEELKPLEEVLNLAPSKNFHLRPRDLISDINVIVLELKGSETTFMCEYADETATIVEFLNRWITFSQSIISTLT | 1000 | 4000 | 4000 | 1.02 |
| SEQ ID NO 31 (ligand) APTSSSTKKTQLQLEHLLLDLQMILNGINNYKNPKLTRMLTFKFYMPKKATELKHLQCLEEELKPLEEALNLAPSKNFHLRPRDLISDINVIVLELKGSETTFMCEYADETATIVEFLNRWITFSQSIISTLT | 7000 | 10000 | 10000 | 17 |
| SEQ ID NO 24 (ligand) APTSSSTKKTQLQLEHLLLDLQMILNGINNHKNPKLTRMLTFKFYMPKKATELKHLQCLEEELKPLEEVLRLAQSKNFHLRPRDLISDINVIVLELKGSETTFMCEYADETATIVEFLNRWITFSTSIISTLT | 4000 | 10000 | 10000 | 18.3 |
| SEQ ID NO 33 (ligand) APTSSSTKKTQLQLEHLLLDLQMILNGINNYKNPKLTRMLTFKFYMPKKATELKHLQCLEEELKPLEEVLNLAPSKNFHLRPRDLISDINVIVLELKGSETTFMCEYADETATIVEFLNRWITFSQSIISTLT | 4000 | 1000 | 1000 | 2.53 |
| SEQ ID NO 26 (ligand) APTSSSTKKTQLQLEHLLLDLQMILNGINNHKNPRLTRMLTFKFYMPKKATELKHLQCLEEELKPLEEVLRLAPSKNFHLRPRDLISDINVIVLELKGSETTFMCEYADETATIVEFLNRWITFSQSIISTLT | 2640 | 4270 | 4270 | 0.67 |
| SEQ ID NO 27 (ligand) APTSSSTKKTQLQLEHLLLDLQMILNGINNHKNPRLTRMLTFKFYMPKKATELKHLQCLEEELKPLEEVLRLAPSKNFHLRPRDLISNINVIVLELKGSETTFMCEYADETATIVEFLNRWITFSTSIISTLT | 4000 | 10000 | 10000 | 5.94 |
